Data from patent US20250262210A1 (TRUSTEES OF COLUMBIA UNIVERSITY IN THE CITY OF NEW YORK, published 2025).

Columns and labels:
Test in all cases: IP/MS, LZTR1 R810W-FLAG, U87
RUSC2 = RUSC2 (human, UniProt Q8N2Y8 1-1516)
Procedure, shortened: (§1)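 Gel slices were reduced with 5 mM DTT, alkylated with 11 mM IAA and digested overnight at 37° C. with trypsin. Peptides were analysed on an Orbitrap Fusion Tribrid by LC-MS/MS.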

HECTD3 = target: T1, HECTD3 (human, UniProt Q5T447 2-861, limits assumed)
T1 sequence (looked up): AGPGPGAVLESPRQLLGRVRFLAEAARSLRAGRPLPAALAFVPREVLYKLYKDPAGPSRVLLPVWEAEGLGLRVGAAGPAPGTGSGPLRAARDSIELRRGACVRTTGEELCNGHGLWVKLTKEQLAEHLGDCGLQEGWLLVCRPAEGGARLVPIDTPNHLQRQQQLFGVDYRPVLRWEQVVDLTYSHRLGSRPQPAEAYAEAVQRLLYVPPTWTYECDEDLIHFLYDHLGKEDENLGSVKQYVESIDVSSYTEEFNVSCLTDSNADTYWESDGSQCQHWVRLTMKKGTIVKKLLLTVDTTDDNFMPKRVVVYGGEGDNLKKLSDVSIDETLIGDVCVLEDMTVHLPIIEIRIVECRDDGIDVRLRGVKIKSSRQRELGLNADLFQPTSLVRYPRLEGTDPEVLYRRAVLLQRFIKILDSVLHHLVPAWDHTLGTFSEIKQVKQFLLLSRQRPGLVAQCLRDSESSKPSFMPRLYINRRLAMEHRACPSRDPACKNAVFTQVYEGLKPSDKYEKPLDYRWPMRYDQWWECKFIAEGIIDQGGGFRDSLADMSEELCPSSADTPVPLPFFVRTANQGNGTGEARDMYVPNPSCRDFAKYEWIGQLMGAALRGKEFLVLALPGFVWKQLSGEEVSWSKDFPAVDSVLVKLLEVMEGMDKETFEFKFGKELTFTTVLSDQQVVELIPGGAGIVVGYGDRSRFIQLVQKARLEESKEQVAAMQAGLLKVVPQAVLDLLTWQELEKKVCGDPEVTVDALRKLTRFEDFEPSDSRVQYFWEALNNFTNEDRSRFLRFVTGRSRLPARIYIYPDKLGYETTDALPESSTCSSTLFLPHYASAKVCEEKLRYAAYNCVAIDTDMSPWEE
Procedure, shortened: as §1

POLR3A = target: T2, POLR3A (human, UniProt O14802 1-1390)
T2 sequence (looked up): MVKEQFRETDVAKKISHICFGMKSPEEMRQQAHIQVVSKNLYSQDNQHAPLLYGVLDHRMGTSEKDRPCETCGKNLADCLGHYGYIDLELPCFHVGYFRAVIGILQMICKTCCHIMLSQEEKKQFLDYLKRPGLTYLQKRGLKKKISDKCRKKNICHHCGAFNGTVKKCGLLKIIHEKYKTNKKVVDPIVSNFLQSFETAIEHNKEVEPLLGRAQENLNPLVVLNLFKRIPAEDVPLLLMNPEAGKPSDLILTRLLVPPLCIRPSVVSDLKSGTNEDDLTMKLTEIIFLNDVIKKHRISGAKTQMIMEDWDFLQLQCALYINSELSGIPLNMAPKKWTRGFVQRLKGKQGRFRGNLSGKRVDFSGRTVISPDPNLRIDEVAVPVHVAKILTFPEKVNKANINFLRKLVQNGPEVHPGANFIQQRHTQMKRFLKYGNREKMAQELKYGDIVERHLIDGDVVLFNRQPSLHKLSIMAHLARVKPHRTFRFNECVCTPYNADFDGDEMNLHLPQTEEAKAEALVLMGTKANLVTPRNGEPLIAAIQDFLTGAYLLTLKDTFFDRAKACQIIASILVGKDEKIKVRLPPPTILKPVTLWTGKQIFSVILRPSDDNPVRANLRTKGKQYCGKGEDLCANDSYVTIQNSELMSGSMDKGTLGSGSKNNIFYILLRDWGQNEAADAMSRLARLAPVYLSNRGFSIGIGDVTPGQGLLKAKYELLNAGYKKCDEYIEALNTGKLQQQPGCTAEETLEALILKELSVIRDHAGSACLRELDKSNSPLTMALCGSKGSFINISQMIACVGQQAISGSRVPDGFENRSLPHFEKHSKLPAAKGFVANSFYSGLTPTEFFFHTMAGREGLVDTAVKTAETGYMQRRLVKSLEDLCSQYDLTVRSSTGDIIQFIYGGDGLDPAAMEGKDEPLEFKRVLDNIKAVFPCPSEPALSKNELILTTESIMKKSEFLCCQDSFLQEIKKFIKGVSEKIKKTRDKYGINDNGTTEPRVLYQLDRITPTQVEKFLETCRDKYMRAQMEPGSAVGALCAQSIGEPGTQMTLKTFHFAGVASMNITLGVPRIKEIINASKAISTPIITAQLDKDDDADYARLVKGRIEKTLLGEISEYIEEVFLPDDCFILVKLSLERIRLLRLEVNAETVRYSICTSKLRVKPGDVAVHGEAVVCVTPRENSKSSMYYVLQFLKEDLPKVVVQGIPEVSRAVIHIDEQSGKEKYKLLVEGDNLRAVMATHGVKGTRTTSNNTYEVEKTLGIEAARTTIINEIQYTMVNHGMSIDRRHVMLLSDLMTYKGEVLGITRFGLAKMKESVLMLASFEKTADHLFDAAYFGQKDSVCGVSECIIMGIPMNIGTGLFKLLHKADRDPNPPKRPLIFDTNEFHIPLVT
Procedure, shortened: as §1

Measured: binding result

RUSC2, sequence (Q8N2Y8 whole entry, the tested form may be a part): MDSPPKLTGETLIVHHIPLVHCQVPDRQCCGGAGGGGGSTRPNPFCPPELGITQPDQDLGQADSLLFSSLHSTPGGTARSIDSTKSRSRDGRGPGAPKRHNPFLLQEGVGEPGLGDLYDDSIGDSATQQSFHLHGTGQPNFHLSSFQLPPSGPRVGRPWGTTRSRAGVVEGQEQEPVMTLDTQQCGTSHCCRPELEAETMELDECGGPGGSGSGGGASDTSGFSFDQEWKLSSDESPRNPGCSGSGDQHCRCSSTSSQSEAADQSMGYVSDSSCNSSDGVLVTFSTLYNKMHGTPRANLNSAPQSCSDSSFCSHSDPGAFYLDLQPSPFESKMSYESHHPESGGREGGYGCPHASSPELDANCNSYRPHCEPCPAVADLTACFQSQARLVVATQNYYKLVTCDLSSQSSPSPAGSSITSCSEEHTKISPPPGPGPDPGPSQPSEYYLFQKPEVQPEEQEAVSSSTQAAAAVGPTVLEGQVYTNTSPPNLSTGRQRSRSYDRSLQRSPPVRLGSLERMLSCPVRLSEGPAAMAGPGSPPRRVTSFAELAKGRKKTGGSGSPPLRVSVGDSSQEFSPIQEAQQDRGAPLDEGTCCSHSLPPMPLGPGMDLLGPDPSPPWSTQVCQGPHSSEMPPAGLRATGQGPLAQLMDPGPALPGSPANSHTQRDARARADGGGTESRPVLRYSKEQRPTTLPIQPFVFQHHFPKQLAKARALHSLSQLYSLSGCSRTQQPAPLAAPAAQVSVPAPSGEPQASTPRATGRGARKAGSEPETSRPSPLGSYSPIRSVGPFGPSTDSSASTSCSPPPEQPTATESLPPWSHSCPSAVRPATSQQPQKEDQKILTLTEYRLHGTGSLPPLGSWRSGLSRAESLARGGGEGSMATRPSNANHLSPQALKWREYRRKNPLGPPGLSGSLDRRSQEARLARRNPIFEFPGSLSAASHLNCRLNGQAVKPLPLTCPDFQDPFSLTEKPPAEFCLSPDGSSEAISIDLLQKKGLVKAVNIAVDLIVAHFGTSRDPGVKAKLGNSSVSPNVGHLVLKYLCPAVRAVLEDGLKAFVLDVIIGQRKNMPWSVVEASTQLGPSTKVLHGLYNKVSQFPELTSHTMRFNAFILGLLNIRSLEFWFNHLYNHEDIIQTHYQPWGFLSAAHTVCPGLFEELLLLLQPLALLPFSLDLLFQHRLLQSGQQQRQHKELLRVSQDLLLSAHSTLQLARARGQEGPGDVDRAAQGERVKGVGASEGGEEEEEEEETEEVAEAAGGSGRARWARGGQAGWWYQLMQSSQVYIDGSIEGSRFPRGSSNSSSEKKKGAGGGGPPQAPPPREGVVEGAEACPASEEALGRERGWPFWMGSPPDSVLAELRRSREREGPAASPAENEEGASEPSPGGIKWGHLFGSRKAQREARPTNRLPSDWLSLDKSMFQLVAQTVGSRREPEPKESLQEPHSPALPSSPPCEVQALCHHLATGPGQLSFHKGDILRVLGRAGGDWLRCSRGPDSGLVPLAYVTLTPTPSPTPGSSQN

B1: LZTR1 R810W-FLAG (other, human, UniProt Q8N653 1-840, looked up)
chain: MAGPGSTGGQIGAAALAGGARSKVAPSVDFDHSCSDSVEYLTLNFGPFETVHRWRRLPPCDEFVGARRSKHTVVAYKDAIYVFGGDNGKTMLNDLLRFDVKDCSWCRAFTTGTPPAPRYHHSAVVYGSSMFVFGGYTGDIYSNSNLKNKNDLFEYKFATGQWTEWKIEGRLPVARSAHGATVYSDKLWIFAGYDGNARLNDMWTIGLQDRELTCWEEVAQSGEIPPSCCNFPVAVCRDKMFVFSGQSGAKITNNLFQFEFKDKTWTRIPTEHLLRGSPPPPQRRYGHTMVAFDRHLYVFGGAADNTLPNELHCYDVDFQTWEVVQPSSDSEVGGAEVPERACASEEVPTLTYEERVGFKKSRDVFGLDFGTTSAKQPTQPASELPSGRLFHAAAVISDAMYIFGGTVDNNIRSGEMYRFQFSCYPKCTLHEDYGRLWESRQFCDVEFVLGEKEECVQGHVAIVTARSRWLRRKITQARERLAQKLEQEAAPVPREAPGVAAGGARPPLLHVAIREAEARPFEVLMQFLYTDKIKYPRKGHVEDVLLIMDVYKLALSFQLCRLEQLCRQYIEASVDLQNVLVVCESAARLQLSQLKEHCLNFVVKESHFNQVIMMKEFERLSSPLIVEIVRRKQQPPPRTPLDQPVDIGTSLIQDMKAYLEGAGAEFCDITLLLDGHPRPAHKAILAARSSYFEAMFRSFMPEDGQVNISIGEMVPSRQAFESMLRYIYYGEVNMPPEDSLYLFAAPYYYGFYNNRLQAYCKQNLEMNVTVQNVLQILEAADKTQALDMKRHCLHIIVHQFTKVSKLPTLWSLSQQLLLDIIDSLASHISDKQCAELGADI
notes: Stably expressed in U87 cells by lentivirus; also called LZTR1-FLAG-R810W; LZTR1 RW; not shown: FLAG tag
binds: RUSC2 | HECTD3 | POLR3A
